# In patent US20160137713A1 (HANALL BIOPHARMA, published 2016):
# T1: mouse FcRn on 3T3-L1 cells (mouse, UniProt Q61559 22-365; P01887 21-119)
# T1 construct: whole, on cells; also called NIH3T3L1
# T1 sequence (looked up): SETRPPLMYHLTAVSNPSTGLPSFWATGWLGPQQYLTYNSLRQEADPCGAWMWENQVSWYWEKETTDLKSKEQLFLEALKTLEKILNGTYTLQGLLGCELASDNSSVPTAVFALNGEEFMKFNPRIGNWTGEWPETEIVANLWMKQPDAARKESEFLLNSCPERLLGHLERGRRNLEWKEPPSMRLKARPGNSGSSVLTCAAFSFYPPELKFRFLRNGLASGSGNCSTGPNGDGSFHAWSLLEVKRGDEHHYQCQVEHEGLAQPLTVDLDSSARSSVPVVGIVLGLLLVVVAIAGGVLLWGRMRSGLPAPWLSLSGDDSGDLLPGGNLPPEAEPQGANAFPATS
# T1 sequence (b2m, looked up): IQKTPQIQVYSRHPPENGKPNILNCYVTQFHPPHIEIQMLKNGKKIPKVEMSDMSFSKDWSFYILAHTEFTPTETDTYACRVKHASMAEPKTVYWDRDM
# B1: HL161-11H (antibody, V domains shown)
# VH: QMQLVESGGGLVQPGRSLRLSCAASGFTFSSYAMHWVRQAPGKGLEWVAVISYDGSNKYYADSVKGRFTISRDNSKNTLYLQMNSLRSEDTAVYYCSRGSGGRDAFDVWGQGTMITVSS
# VL: DIQMTQSPSTLSASVGDRVTITCRASQSISSRLAWYQQKPGKAPKLLIYKASSLETGVPSRFSGSGSGTEFTLTISSLQPDDFATYYCQQTNSFPLTFGGGTKVEIK
# notes: Whole human IgG from pNATAB vectors
# Tests used:
# [1] = biological target: T1, mouse FcRn on 3T3-L1 cells; assay: FACS on mouse FcRn-expressing 3T3-L1 cells at pH 6.0 and pH 7.4, FITC anti-human IgG goat antibody; MFI relative to hIgG
# Protocol: 3T3-L1 cells stably expressing mouse FcRn were cultured in 10% FCS DMEM medium, and then detached from the culture plate by trypsin treatment. The cells were washed three times with cold binding buffer (PBS, pH 6.0 10 mM EDTA), and then diluted in binding buffer at a concentration of 10⁵ cells/ml. 100 μl of the cell dilution was dispensed into each 1.5-ml tube in such a manner that each tube contained 10⁴ cells, and 1 μl of HL161 antibody (1 mg/ml) was added to the dispensed cells. Next, the cells were incubated on ice. As control antibodies, 1 μl of each of rabbit antibody (Santacruz, sc-66893) and human IgG (Abcam, cat#. 409120), which bind to mouse FcRn, was used. The cells were recovered by centrifugation at 4° C. and 4000 rpm for 5 minutes, after which the cells were washed once with binding buffer and resuspended in 100 μl of binding buffer. As FITC-conjugated secondary antibody, 1 μl of anti-human IgG goat antibody (Invitrogen, Cat*. A11013) was added to the cells. In the case of the experiment using anti-mouse FcRn rabbit antibody, the anti-rabbit antibody was incubated with the cells on ice for 1 hour, and then the cells were recovered by centrifugation at 4° C. and 700 g for 5 minutes, washed once with binding buffer, resuspended in 400 ul of binding buffer and analyzed by FACS to examine the cross-reactivity of the HL161 antibodies with mouse FcRn (see FIG. 4). An experiment at a pH of 7.4 was performed using binding buffer at a pH of 7.4 in the same manner as the experiment using binding buffer at a pH of 6.0. The degree of the binding of each antibody to mouse FcRn was presented as relative MFI based on human IgG.
# [2] = biological target: T2, human FcRn on HEK293 cells (human, UniProt P55899 24-365; P61769 21-119); assay: FACS competition on hFcRn HEK293 cells at pH 6.0; remaining binding of 100 nM Alexa488-labeled hIgG1 (m14) with 500 nM competitor antibody, percent of the tube without competitor
# T2 construct: whole, on cells; also called hFcRn
# T2 sequence (P55899 24-365, chain 1 of 2): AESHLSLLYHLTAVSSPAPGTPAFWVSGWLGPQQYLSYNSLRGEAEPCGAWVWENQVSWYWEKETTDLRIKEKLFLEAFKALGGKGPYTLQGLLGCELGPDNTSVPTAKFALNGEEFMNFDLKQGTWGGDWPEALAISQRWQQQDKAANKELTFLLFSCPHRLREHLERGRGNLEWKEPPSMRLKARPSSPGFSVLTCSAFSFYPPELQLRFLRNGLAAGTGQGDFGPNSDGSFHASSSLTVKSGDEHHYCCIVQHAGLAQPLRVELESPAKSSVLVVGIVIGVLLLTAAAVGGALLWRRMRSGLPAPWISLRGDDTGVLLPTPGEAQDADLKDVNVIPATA
# T2 sequence (P61769 21-119, chain 2 of 2): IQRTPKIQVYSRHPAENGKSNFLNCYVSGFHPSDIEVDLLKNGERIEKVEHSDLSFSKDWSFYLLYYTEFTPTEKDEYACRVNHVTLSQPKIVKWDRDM
# Protocol: (§1) In stable HEK293 cells expressing human FcRn, the blocking of the antibody against FcRn was analyzed by FACS. The antibody was diluted in binding buffer (PBS pH 6.0, 10 mM EDTA) at concentrations of 2,000 nM, […] to make 50 μl of dilutions, which were dispensed into tubes. […] Stable HEK293 cells were diluted in binding buffer at a concentration of 2,500,000 cells/ml, and 40 μl of the cell dilution was added to each of the labeled antibody-containing tubes. Thus, a final volume of 100 μl contained 100,000 cells, 100 nM labeled antibody and 1000 nM, 500 nM or 250 nM competitor antibody. The cells were washed once with 150 μl of buffer (pH 6.0), and pellets were obtained therefrom and resuspended in 150 μl of buffer having pH difference. The suspension was transferred into a tube for FACS analysis. The cells were analyzed by FACS using BD FACSDiva™ v6.1.3 software (BD Bioscience). The results of the analysis were expressed as mean fluorescence intensity (MFI).
# (§2) The MFI of the test group was processed after subtracting the MFI (background signal) measured in cells alone.
# [3] = biological target: T2, human FcRn on HEK293 cells; assay: FACS on hFcRn-overexpressing HEK293 cells at pH 7.4, Alexa488 anti-human goat antibody; MFI relative to hIgG1
# Protocol: In stable HEK293 cells expressing human FcRn, the degrees of binding of antibody to FcRn at various pHs were analyzed using a FACS system. Specifically, 100,000 stable HEK293 cells were washed with PBS and centrifuged in a table top microcentrifuge at 4500 rpm for 5 minutes to obtain pellets. 1 μg of antibody was added to 100 μl of pH 6.0 or pH 7.4PBS/10 mM EDTA. The cell pellets were resuspended in 100 μl of the antibody solution and incubated on ice for 60 minutes. The cells were washed once with 150 μl of buffer having pH difference, and then pellets were obtained therefrom. Alexa488-labeled anti-human antibody goat antibody (1 mg/ml) was diluted at 1:20 in buffer having pH difference, and the pellets were resuspended in 100 μl of the buffer, and then cultured on ice for 60 minutes. The cells were washed once with 150 μl of buffer having pH difference, and pellets were obtained therefrom and resuspended in buffer having pH difference. The suspension was transferred into a tube for FACS analysis. These cells were analyzed by FACS using BD FACSDiva™ v6.1.3 software (BD Bioscience). The results of the analysis were expressed as Mean Fluorescence Intensity (MFI) (see FIG. 2).
# [4] = biological target: T2, human FcRn on HEK293 cells; assay: FACS competition on hFcRn HEK293 cells at pH 6.0; remaining binding of 100 nM Alexa488-labeled hIgG1 (m14) with 1000 nM competitor antibody, percent of the tube without competitor
# Protocol: as §1, §2
binder,measurement,setting,value
B1,binding result,[1],no binding
same,Relative MFI(%) at 500nM,[2],60.4%
same,Relative MFI (Fold),[3],10.6 fold
same,Relative MFI(%) at 1000nM,[4],51.8%
